# ± gives the standard deviation.
# Assay: protein stability index of a GFP-peptide fusion (GPS, HEK-293T) (PSI 1-6); higher = more stable
# [1] = treatment: DMSO, c terminus: a fixed tail appended
# [2] = treatment: MLN4924 1 uM, 8 h, c terminus: a fixed tail appended
# [3] = treatment: DMSO, c terminus: native
# [4] = treatment: MLN4924 1 uM, 8 h, c terminus: native
# 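Further: 24-mer peptide tiles fused after GFP, lentivirally expressed, FACS-sorted into six equal bins by GFP/DsRed ratio, decoded by Illumina sequencing, PSI is the read-weighted mean bin number.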
Sequence,protein stability index [1],protein stability index [2],protein stability index [3],protein stability index [4]
SSQESGEEAGSQENHPQESKGQPR [CHGB],5.7 ± 0.16,5.73 ± 0.097,–,–
CMFCNEEFLGNRSVILNHMAREHA [ZNF277],3.62 ± 0.38,3.52 ± 0.46,–,–
MAGNFWQSSHYLQWILDKQDLLKE [CCNC],2.34 ± 0.32,2.57 ± 0.38,–,–
IFATKPHVLPAVLAEVAPVVTTEH [PYCR3],3.33 ± 0.38,3.4 ± 0.21,–,–
ARLQDFQELELVLMISENNFLFRN [ANKRD40],2.97 ± 0.63,2.66 ± 0.58,–,–
AVINDIANLPVPTIAAIDGLALGG [AUH],2.79 ± 0.21,2.62 ± 0.23,–,–
YLSLLRMYLSPPSIHCLGPIKLEL [VPS39],3.26 ± 0.43,2.94 ± 0.16,–,–
HNAHQLAAWCLHHICTNYNSVCSK [RHOBTB1],2.85 ± 0.55,2.79 ± 0.59,–,–
SRLQLLGATCMFVASKMKETIPLT [CCND1],2.69 ± 0.44,2.69 ± 0.66,–,–
SLGELCHPVPLSFEPVKSFFKGLV [TRIM14],2.47 ± 0.7,1.89 ± 0.17,–,–
VEPETRAVIRWMHSFNFVLSANLH [CPN1],3.1 ± 0.12,3.19 ± 0.27,–,–
FRNPMMSKLRNYRKDLAKLHREVR [VTI1B],2.37 ± 0.36,2.46 ± 0.24,–,–
PQGSGFCLGQLNLEQRSESVRRTR [SMAD6],4.39 ± 0.26,4.67 ± 0.43,–,–
VQKDKYPEEFSLLKLQTKDGHRPE [SPATS1],4.64 ± 0.23,5 ± 0.33,–,–
PWAVDPAFAERYAPDKTSTVLTRH [PDLIM7],3.57 ± 0.24,3.56 ± 0.25,–,–
QGPISTKELADFIRERATIEETYS [FCHO1],3.13 ± 0.21,3.26 ± 0.32,–,–
SMNRVKNISDADVHNAMDNYECNL [FEM1B],4.18 ± 0.29,4.3 ± 0.29,–,–
STMLGVFREDPKTREEFLTLIRS [GCH1],–,–,2.38 ± 0.64,2.84 ± 0.34
IYRDSYPRNPTVRWGYVAMKFAQV [SOAT1],2.79 ± 0.47,2.67 ± 0.53,–,–
GEDRAGPQSPSPGAPPAAKPARG [TSPAN10],–,–,5.32 ± 0.27,5.13 ± 0.12
LFGFYFCMPLVCTAIFYTLMTCEM [EDNRA],3.11 ± 0.33,3.14 ± 0.42,–,–
LTYENVERWLKELRDHADSNIVIM [RAB11A],2.21 ± 0.34,2.75 ± 0.3,–,–
MGSTESSEGRRVSFGVDEEERVRV [CHCHD6],5.15 ± 0.29,5.22 ± 0.13,–,–

Sequence,protein stability index [1],protein stability index [2],protein stability index [3],protein stability index [4]
PQYRSYFMECLVDARMLDHLTKKD [PPFIA4],2.7 ± 0.2,2.58 ± 0.17,–,–
EFVVRCFACPSQALFFKNIMNIID [KCNA4],2.4 ± 0.78,2.12 ± 0.55,–,–
TVVEEPVDITPYLDQLDESLRDKV [INTS3],5.12 ± 0.16,5.03 ± 0.33,–,–
GQRQPPPSEPTQGPEIVPRGAGP [DNAJC4],–,–,5.28 ± 0.51,5.49 ± 0.2
NYGGVIKNYFQHREFSFTLKDDIY [PRIM1],2.13 ± 0.2,2.25 ± 0.08,–,–
ILIIRFEMPYNIWCDGCKNHIGMG [YJU2B],3.24 ± 0.36,2.96 ± 0.71,–,–
SGYAGELGFRAFSGSGNRLDGKKK [UFD1],4.89 ± 0.069,4.74 ± 0.26,–,–
TAQVQKDARIGEAEAKRDAGIREA [FLOT1],5.34 ± 0.16,5.31 ± 0.19,–,–
DYELLQMLQIVVGVRDSGSPPLHA [PCDHGC5],2.3 ± 0.41,2.18 ± 0.17,–,–
PYKKPYMETSPSEEDSFYRSSYPQ [TBX5],3.91 ± 0.47,3.65 ± 0.41,–,–
ARYAQQKHRIRRVLIVDWDVHHGQ [HDAC6],2.33 ± 0.19,2.31 ± 0.42,–,–
GYQMLGNVVTIGLAFFPFLHRLFR [PHTF1],3.71 ± 0.23,3.68 ± 0.34,–,–
LHARLRELLCELGRPSMVWLSANP [PRAME],2.65 ± 0.57,2.39 ± 0.42,–,–
YPVGRFPSLHVVKVLLDCGADPDS [FEM1A],2.12 ± 0.17,2.38 ± 0.51,–,–
DKYVGVSSDSVGGFRYSERYDPEP [CLINT1],4.22 ± 0.23,4.27 ± 0.35,–,–
VQLAQQQAALQKQQEVVVAGSSLP [ACBD3],4.12 ± 0.11,4.49 ± 0.26,–,–
GGIKTVDMRDPTYRPLKQELQGLD [SPSB1],4.18 ± 0.37,4.33 ± 0.27,–,–
SCTVTTVQPMDRLPYQHFSAHFTS [TBX5],2.23 ± 0.15,2.31 ± 0.17,–,–
ENEKDRADQTVLTEDEKKELENLA [CHGB],5.54 ± 0.19,5.75 ± 0.18,–,–
HGASPGLRDGGGLTPLELLLRQLG [ANKRD9],2.66 ± 0.15,2.76 ± 0.35,–,–
APVANSYRGTLKRQPAFDTFDGSL [ETS2],3.4 ± 0.097,3.42 ± 0.13,–,–
KCILKTPGKINCLRNCKTYQARKP [RHOBTB3],2.98 ± 0.17,3.03 ± 0.26,–,–
LSRKKRLELDDNLDTERPVQKRAR [TRIB3],4.79 ± 0.14,4.62 ± 0.37,–,–

Sequence,protein stability index [1],protein stability index [2],protein stability index [3],protein stability index [4]
PGNLEKNRYGDVPCLDQTRVKLTK [PTPN9],–,4.32 ± 0.72,–,–
LRYTLWIPLYPLGCLAEAVSVIQS [HACD3],3.08 ± 0.49,3.11 ± 0.37,–,–
PKAQLSGYAVEATRNQSQLQRFL [FBF1],–,–,4.13 ± 0.19,4.21 ± 0.38
IEQQQIRNALENIRKEMKLLEQAG [CRYL1],3.84 ± 0.17,4.27 ± 0.62,–,–
MRLSKTLVDMDMADYSAALDPAYT [HNF4A],2.86 ± 0.28,3.08 ± 0.25,–,–
SDPETKDFWLNMAALTEALQRQAE [FCHO1],3.29 ± 0.22,3.23 ± 0.32,–,–
SKLKMLERKGWLAPSPGVKEQAIW [PKD2L1],2.26 ± 0.35,2.54 ± 0.3,–,–
LRTLDKKTFYKTADISQMLVCTAD [TAF7L],2.61 ± 0.32,2.65 ± 0.41,–,–
LSTDMVHAASDPSSSSGRLSEPDP [SMOC2],5.29 ± 0.24,5.38 ± 0.15,–,–
GPQPTMEGDVLDTLEALGYKGPLL [FAM98B],4.18 ± 0.32,4.07 ± 0.38,–,–
PKKEANQAPKSKSGSRPRKPPPRK [LRRC59],4.92 ± 0.21,5 ± 0.18,–,–
RVLLTGLHAVADIHCENCKTTLGW [YPEL3],2.42 ± 0.69,2.27 ± 0.29,–,–
DMERFMEEMRELRRKIRELQLRYS [BEX5],2.44 ± 0.36,2.56 ± 0.6,–,–
KRRQLEDERRQLQHLKSKALRERW [PALM],3.93 ± 0.3,4.22 ± 0.57,–,–
FLFVLARVPAGIFKHTLSISRALL [MFSD9],3.29 ± 0.23,2.81 ± 0.11,–,–
MAAAEPSPRRVGFVGAGRMAGAIA [PYCR3],2.97 ± 0.079,3.38 ± 0.073,–,–
PRSGEQAEGSPGGPGDSQGRKRRQ [CDKN1A],5.56 ± 0.16,5.48 ± 0.27,–,–
CSYVVTRTISCHVQNGTYLQRVLQ [EMID1],2.44 ± 0.53,2.6 ± 0.36,–,–
QEQLSLSQRQAKELKLEQQEAAER [LRRC45],5.5 ± 0.19,5.67 ± 0.22,–,–
MVHQRKLEAELLQIEERHQEKKRK [SMARCE1],4.58 ± 0.34,4.36 ± 0.32,–,–
PRGRRISVICRSLPEGMGPGESGQ [ALKBH7],3.69 ± 0.11,3.95 ± 0.37,–,–
AGRRMFPSYKVKVTGLNPKTKYIL [TBX5],2.12 ± 0.4,2.2 ± 0.29,–,–
AMFAADPKKPIGGNIIAHASTTRL [RAD51],3.32 ± 0.087,3.39 ± 0.12,–,–

Sequence,protein stability index [1],protein stability index [2],protein stability index [3],protein stability index [4]
TVMEKCSDGWWRGSYNGQIGWFPS [NCK2],2.45 ± 0.51,2.26 ± 0.37,–,–
MESKEKRAVNSLSMENANQENEEK [BEX1],5.5 ± 0.25,5.52 ± 0.23,–,–
PQAPAPATATDTFEAAPPAPAPAP [CEBPB],5.28 ± 0.51,5.38 ± 0.35,–,–
YTVLGDTLIDGGEHYWEVRYEPDS [FSD1],3.02 ± 0.2,2.97 ± 0.34,–,–
EQELKTVTYSLLKRLKERSLDTLL [SMAD6],2.35 ± 0.34,2.22 ± 0.31,–,–
AGYYELAQVLLAMHANVEDRGIKG [ANKRD17],2.02 ± 0.21,1.96 ± 0.34,–,–
TQATETTTTRHKRTANPSKTIDLG [CLINT1],4.88 ± 0.09,5.05 ± 0.13,–,–
LYSQLLQAYKWSNKLQYHAGLASG [MED27],3.28 ± 0.55,2.67 ± 0.71,–,–
TARFQRNHRLISEILSESVVPDVR [SMARCE1],–,3.23 ± 0.11,–,–
AARGKERCVRVFLEHGADPTVKDL [ASB7],3.73 ± 0.17,3.76 ± 0.38,–,–
FTEKLWPLFYPGIRAGRKNAAPLT [TRIM39],2.59 ± 0.74,2.25 ± 0.16,–,–
FEPRLLVQSIELQRPRFITSGGSN [VPS39],2.88 ± 0.3,2.9 ± 0.21,–,–
QDKSESLSDNATAFSNRSKQLRRQ [VAMP4],5.36 ± 0.4,5.17 ± 0.21,–,–
PSHLLLPPDTVSRTGLEKAAAGAV [SPDEF],4.22 ± 0.33,4.26 ± 0.35,–,–
FGGVLEYFMIQALNQKTSEKMKKR [RHOBTB3],2.14 ± 0.66,2.24 ± 0.25,–,–
TLKFYCLPDNYEIIDSSLEDITYV [USP39],2.18 ± 0.047,2.29 ± 0.19,–,–
PPHYFFTYRIRIEMSKDALPEKAC [FBXO3],2.47 ± 0.48,2.17 ± 0.23,–,–
SDDEMELEETEPPLEPEDALSDAE [P3H4],5.5 ± 0.27,5.59 ± 0.24,–,–
AAQELENQMKERQGLFFDMEAYLP [TMEM120A],3.69 ± 0.27,3.87 ± 0.21,–,–
EGGWWKAISLSTGRESYIPGICVA [SLA],2.03 ± 0.91,2.05 ± 0.52,–,–

# Source: the supplement of paper PMC10567573
